Source: the DeepSol protein solubility set

Experiment: soluble on expression in E. coli; label from the status in PepcDB or PDB records

Row | Sequence | soluble on expression in E. coli
1 | MAHHHHHHSLTQQYLTVTALTKYLKRKFDADPYLGRVYLTGEISNFRFRANAHQYFSLKDDHAKISAIMFKSAFQKLKFQPKEGMKVMVVGRISLYENSGSYQIYIEHMEPDGVGALYQALAELREKLGKEGLFEGPKQQLPRYPKRIAVVTSPSGAVIRDIITTVKRRYPIAQLVLFPTLVQGEQAADDIVRNIQRADAQSDFDTMIIGRGGGSIEDLWPFNEEKVARAIHAATTPIISSVGHETDVTIADMVADVRAATPTAAAELAVPVLNEELLRISERRSRLEQSFLYLLQQRTERFQRLQNSYVFKQPERLYEGQTIKLDRMTQRLFQAMTTIHHQKQRQAQGIIAQLQQQTPKGQLRESQQQLAFLQRNLQTQMTQLFLNKQKQFTSAVQQLDLLSPLKIMGRGYSYTTKEDRVVKTVTELQPADQLTIHYADGTVQANVETITAKKEEFEG | soluble
2 | MGHHHHHHSHMYFVGCGYNAFPVGSEYADFPHMDDKQKDREIRKFRYIIHAEQNALTFRCQEIKPEERSMIFVTKCPCDECVPLIKGAGIKQIYAGDVDVGKKKADISYMRFGELEGVSKFTWQLNPSGAYGLEQNEPERRERDLSHRRKSSTRTRSCASESTKKACLHCRGTSRTFHCTSKIQPCSFRK | not soluble
3 | EVQLQASGGGSVQAGQSLRLSCATSGATSSSNCMGWFRQAPGKEREGVAVIDTGRGNTAYADSVQGRLTISLDNAKNTLYLQMNSLKPEDTAMYYCAADTSTWYRGYCGTNPNYFSYWGQGTQVTVSSRGRHHHHHH | soluble
4 | MLKANVFCAGPVEALILDWAGTTIDFGSLAPVYAFMELFKQEGIEVTQAEAREPMGTEKSEHIRRMLGNSRIANAWLSIKGQASNEEDIKRLYDLFAPIQTRIVAQRSQLIPGWKEVFDKLIAQGIKVGGNTGYGPGMMAPALIAAKEQGYTPASTVFATDVVRGRPFPDMALKVALELEVGHVNGCIKVDDTLPGIEEGLRAGMWTVGVSCSGNEVGLDREDWQALSSDEQQSYRQHAEQRLFNAGAHYVIDSVADLETVITDVNRRLARGEKP | soluble
5 | QSRGEKRTAHNAIEKRYRSSINDKIIELKDLVVGTEAKLNKSAVLRKAIDYIRFLQHSNQKLKQENLSLRTAVHKSKSLKDL | soluble
6 | MNQPLAGYAPAPAGARMENHGNHMLKVAMQTGNDLLARVGSMTAYEGFVQYEPNPPAVRQIAKDWMTGEGAPLMKCSGDGLLYLADYGANVVVINLNGDGISVNATNLLAFDAHLTWGVERVKGLAKFAGQGLWNTKISGQGWVALTSRGKPIVVDCGGGEDETYVDPDALVAWSPNLKVKGKRSFKAQSLIGRGSGEAFQMAFSGQGIVVVQPSEDSTDRLRVRGLEHHHHHH | not soluble
7 | MSLALIVHKYGGTSVGSPERIKNVAKRVAKARAEGHDIVVVVSAMSGETNRLVALAHEMQEHPDPRELDVVLATGEQVTIGLLAMALKDIGVDAKSYTGWQVALKTDTAHTKARIESIDDEKMRADLTAGKVVIVAGFQGISSEGDISTLGRGGSDTSAVALAAALKADECQIYTDVDGVYTTDPRVVPEARRMDTVTFEEMIELASLGSKVLQIRSVEFAGKYKVRLRVLSSLQDGGNGTLITFEEDDNMERAAVTGIAFDKNQARINVRGVPDKPGVAYQILGAVADANIEVDMIIQNVGSEGTTDFSFTVPRGDYKQTLEILSERQDSIGAASIDGDDTVCKVSAVGLGMRSHVGVAAKIFRTLAEEGINIQMISTSEIKVSVLIDEKYMELATRVLHKAFNLGEGHHHHHH | soluble
8 | MAATVVIVAWIANRPPASSHEPSPTPNTQLAEQPLIGLGGGVTVRELTQDTPFSLVALTGDLAGTSARVRAKRPDGDWGPWYQTEYETEPRDPAGTDGSVELGGLNPGPRSTDPVFVGTTTTVQVAVTRPIDAPITQPPAGRPPNDLLDSGLGYRPATKEQPFGQNISAILISPPQAPPGTQWTPPTAVTMAGQPPAIISRAEWGADESLRCETPEYDRGVRAAVVHHTAGSNDYSPLESAGIVKAIYTYHSKTLGWCDIAYNALVDKYGQVFEGSAGGLTKPVEGFHTGGFNRNTWGVAMIGNFDDVAPTPIQIRTVGRLLGWRLGMDDVDPRSMVDLQSAGSSYTTFPGGAIARLPAIFTHRDVGNTDCPGNAAYAVMDEIRDIAAHFNDPPEELIKALEGGAIYQRWQALGGMNSALGAPTSPEADAADGARYATFAKGAMYWSPVTDAQPITGAIYEAWASQSYERGPLGLPTSAEIQEPLQITQNFQHGTLNFERLTGNVTEVVDGITTPLATRPPSGPTVPPEHFTLPTHPIT | soluble
9 | MSSEDRHLGSSCGSFIKTEPSSPSSGIDALSHHSPSGSSDASGGFGIALSTHANGLDSPPMFAGAGLGGNPCRKSYEDCTSGIMEDSAIKCEYMLNAIPKRLCLVCGDIASGYHYGVASCEACKAFFKRTIQGNIEYNCPATNECEITKRRRKSCQACRFMKCLKVGMLKEGVRLDRVRGGRQKYKRRLDSENSPYLNLPISPPAKKPLTKIVSNLLGVEQDKLYAMPPNDIPEGDIKALTTLCELADRELVFLINWAKHIPGFPSLTLGDQMSLLQSAWMEILILGIVYRSLPYDDKLAYAEDYIMDEEHSRLVGLLDLYRAILQLVRRYKKLKVEKEEFMILKALALANSDSMYIENLEAVQKLQDLLHEALQDYELSQRHEEPRRAGKLLWTLPLLRQTAAKAVQHFYSVKLQGKVPMHKLFLEMLEAKV | soluble
10 | MAHHHHHHMPPLAQLCALALQYRCDLSQEIDQNIRSCFHSSRVPSISLWDYIRRFAKYSVCSEECFILAMVLMDRYVCKTQIPITLRNVHRLYITAMTLSVKLRDDSYYSNAYYASIGGVVNAELNVLELELLDIVQWFTWVEKSVYDAYVARLEALFGDAMPKLLVASPNK | not soluble
11 | MGSDKIHHHHHHMKMLVGKIPSELLAKILEKLKPGDKVIVGPKVGIDATAIDFGDYVLVASTDPITGTEEKIGFYAVNINANDVATFGARPKWFLVTILLPEGSEFNDVITIMDEVREVAEGMGISIVGGHTEVTPGLKKPIVVGTMLGEVEKENLVVPNPRPGDAIILTKGAGIEGTSIIAHEREEELKGVFGSNFVERAKAFINEISIVREALLSREFATAMHDPTEGGIANGLHEMADINGLGFRIFANKVIIREETRKICHFYDLDPLALISSGALLISTPRDHAKFLIERLLSHGIQASIIGEFLAEKKRVIIENGAERPLKRPESDELWKVV | not soluble
12 | MKIQDYTKQMVDEKSFIDMAYTLLNDKGETMNLYDIIDEFRALGDYEYEEIENRVVQFYTDLNTDGRFLNVGENLWGLRDWYSVDDIEEKIAPTIQKFDILDADDEEDQNLKLLGEDEMDDDDDIPAQTDDQEELNDPEDEQVEEEINHSDIVIEEDEDELDEDEEVFEDEEDFND | not soluble
13 | MSLYQHGYHAGNFADVIKHITLTRLLAYLTHKDKPLFYLETHSGRGIYDLKDKQSLKTEEYKEGINPVWLDRENLPSLFLEYISVIKQINLNSTLSYYPGSPYFAINQLRSQDRLYLCELHPTEYNFLLKLPHFNKKVYVNHTDGVSKLNALLPPPEKRGLIFIDPSYERKEEYKEIPYAIKNAYSKFSTGLYCVWYPVVNKAWTEQFLRKMREISSKSVRIELHLNPLINEGMTGCGLWIINPPYTFPSEIKLVLETLTTYFNPGSSSYMIESGSKLCHGLKGIITITTDPNSSSVDKLAAALEHHHHHH | soluble
14 | MSLTGMLKRKVIVVSGVGPGLGTTLAHRCARDGADLVLAARSAERLDDVAKQIIDTGRRAVAVRTDITDDDDVSNLVQATLAAYGKADVLINNAFRVPSMKPLAGTTFEHIRDAIELSALGTLRLIQAFTPALAQSHGAIVNVNSMVIRHSQPKYGTYKMAKSVLLAMSHSLATELGEQGIRVNSVAPGYIWGDTLKSYFDHQAGKYGTTVDQIYQATAANSDLKRLPTEDEVASAILFLASDLASGITGQTLDVNCGEYHTEGHHHHHH | soluble
15 | SNAMQIVKKEKFILKEYTFENGRTIPVQMGYETYGTLNRERSNVILICHYFSATSHAAGKYTAHDEESGWWDGLIGPGKAIDTNQYFVICTDNLCNVQVKNPHVITTGPKSINPKTGDEYAMDFPVFTFLDVARMQCELIKDMGIARLHAVMGPSAGGMIAQQWAVHYPHMVERMIGVITNPQNPIITSVNVAQNAIEAIRLDPSWKGGKYGEEQPMKGLQLANRMMFMNAFDEHFYETTYPRNSIEVEPYEKVSSLTSFEKEINKLTYRSIELVDANSWMYTAKAVLLHDIAHGFSSLEEALSNVEANVLMIPCKQDLLQPSRYNYKMVDLLQKQGKYAEVYEIESINGHMAGVFDIHLFEKKVYEFLNRKVSSFV | soluble
16 | MGSDKIHHHHHHMSNNHKDSTINLYNHTASDWIRGEPSSLSDFTARPSVLELCEPVSGLRVVDIGCGEGYCSRELHRRGAAQVYGIDLSQGMIEAAKLQEVEHPLSISYEVGCATNLKRFDDSEIDLVVAVFLFNYLTISQTQECMAEVARILRPGGRFVFSVPHPSFPYMREAAYPFYFQVEGAGYFSNRDQQFPGRIWKRDGSWLNVQLIHKTLEDYFNALRIAGFNTMPILQELRVTSEHIAVDKSFFSPLLDQPLHLALQILR | not soluble
17 | MSLHHLTTYITHDTLISALGFGTQENLEAIRSYHSGITLQTDKRIADTPLLAATLSQERLQQQAEAIGVSGYPRMEQLFILTINELIRQSGQTLEDKTCGLILSTTKGNIDLLARHTEHPDEAVFLWKMAENIAGYFHAEERVHVISNACISGVSALIAGKRMIENGIYRRVIVAGGDLLSHFITSGFGSFRSLSSRPCRPYDSSRDGLNLGEACGAVLLSSEGTEEHVILSGGAVSNDANHISGPSRTGDGLYFAIRQAMQEAGTAPQDISFVNAHGTATVYNDEMESKALTLAHLEQVPVHSLKPYFGHTLGASGIIESIVCMHELKQGILFGTPGYETPGVPMPIPVYATHRSIPMKHCVKTASGFGGCNAAIVLSLPEYTPFKDEDNTLPEIRCTREVRIENSSVFINNELIFHSEEPDFGTFIRDTYKKTGGNNLKFYKMDDLCKLGYVAAEYLLEGKTFAPLEMGMLLANAASSLHTDIRHQQLIDREGDQAASPAVFVYTLPNVVSGEICIRHKIQGENTFFITEAYQPEKLERYARIVMQKGKLNYCIIGWCELWKNTYKAVFKLIEKEGHHHHHH | soluble
18 | MANFMSKEAPFWKVKKLEEMSLSEWESLCDGCGLCCLHKVEDDDTGDIYATSVACRLLDSETCRCRNYVHRKSIVPDCIFLNLATIKTVRWLPENCAYRLIYEGKDLYWWHPLVSGNYQTVHQTQFSARGQIEIYEDELSSEEDYLQYITGILCEGR | not soluble
19 | VRRLLIVHHTPSPHMQEMFEAVVSGATDPEIEGVEVVRRPALTVSPIEMLEADGYLLGTPANLGYISGALKHAFDVCYYLCLDTTRGRSFGAYIHGNEGTEGAERAVDAITTGLGWVQAAETVVVMGKPSKADIEACWNLGATVAAQLMG | soluble
20 | MGSDKIHHHHHHMINQINFKTSHGGSREEGYIDFSASVNPYPPEWTDEMFERAKKISTFYPYYEKLEEELSDLIGEPITITAGITEALYLLGVWMRGRKVIIPKHTYGEYERISRMFGGRVIKGPNDPGKLAEFVERNSFVFFCNPNNPDGKFYREKEMKPLLDAIQDTNSILILDEAFIDFVKKPESPEGENIIRLRTFTKSYGLPGVRVGYVIGFVDAFRSVRMPWSIGSTGVAFLEFLLKDNFKHLRKTLPLIWKEKERIEKELKVKSDANFFIMKVREGIIEKLKENGILVRDCKSFGLPGYIRFSVRRREENDKLINILRKTLNT | not soluble
21 | MHHHHHHSSGRENLYFQGSVFGVPLTVNVQRTGQPLPQSIQQAMRYLRNHCLDQVGLFRKSGVKSRIQALRQMNEGAIDCVNYEGQSAYDVADMLKQYFRDLPEPLMTNKLSETFLQIYQYVPKDQRLQAIKAAIMLLPDENREVLQTLLYFLSDVTAAVKENQMTPTNLAVCLAPSLFHLNTLKRENSSPRVMQRKQSLGKPDQKDLNENLAATQGLAHMIAECKKL | soluble
